Data on one molecule can be found in article PMC10039935, “Organic electrochemical transistors as on-site signal amplifiers for electrochemical aptamer-based sensing”.

The target of the data set is TGF-β1 (transforming growth factor beta 1) (UniProt P01137 279-390). Briefly: electrochemical aptamer sensor (CV/SWV, signal-off) with OECT readout; 1 mM MgCl2 in aptamer folding; aptamer on Au with MCH backfill; 1x PBS (selectivity test in bare 1x PBS); aptamer folded and MCH backfill in 1x PBS with 1 mM MgCl2; assay pH and temperature not stated. Conditions: chain copies: 2; label: 5' methylene blue; 3' thiol on Au electrode; single strand, folded.
Chain of TGF-β1 (transforming growth factor beta 1) (P01137 279-390): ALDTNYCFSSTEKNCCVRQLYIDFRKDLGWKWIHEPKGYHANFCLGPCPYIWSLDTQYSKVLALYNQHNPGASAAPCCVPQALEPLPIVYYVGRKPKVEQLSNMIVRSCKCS

B1: TGF-β1 aptamer (MB-modified) (XNA)
DNA: CGCTCGGCTTCACGAGATTCGTGTCGTTGTGTCCTGTACCCGCCTTGACCAGTCACTCTAGAGCATCCGGACTG
modifications: partial phosphorothioate, 5' side of some A and C, printed as * : CG*CTCGG*CTTC*ACG*AG*ATT*CGTGT*CGTTGTGT*C*CTGT*A*C*C*CG*C*CTTG*A*C*C*AGT*C*ACT*CT*AG*AGC*AT*C*CGG*A*CTG; 5' amino C6; 3' iSpC3 and thiol C3
Consider B1, for which the binding result was “binds”.
